According to US20230203482A1, “Methods of Rescuing Stop Codons via Genetic Reassignment with ACE-tRNA” (THE WISTAR INSTITUTE OF ANATOMY AND BIOLOGY, priority 2017, published 2023):
Where a chain is given by its changes, count along the chain named.

Experiments:
[1] = system: native stop codons (TAA, TAG, TGA) of HEK293 transcripts; assay: Ribosome footprint profiling of transcriptome-wide 3′UTRs; assay type: cell-based, human
Description: The question was raised whether ACE-tRNAs that show efficacious suppression of premature stop codons may also induce global readthrough of native stop codons. To address this potential “off target” suppression, a transcriptome-wide quantitative profile of actively engaged ribosomes on all cellular transcripts was obtained by generating libraries of ribosome footprints from HEK293 cells expressing exogenous ACE-tRNAs or a control mock plasmid (puc57GG). Streptomycin was removed from the growth media to prevent readthrough artifacts. For comparison, the ribosome footprint library was also generated from cells in the presence or absence of G418 (150 μM, 48 hours). […] Only transcripts with a minimum threshold of 5 RPKM in the coding sequence and 0.5 RPKM in the 3′UTR in two replicate libraries were included for the quantitation comparison (254 transcripts in G418 and 495-748 transcripts in ACE-tRNAs). […] ACE-tRNAs examined here had no detectable change of 3′UTR ribosome density with the exception of ACE-tRNA Gln-UAA and Arg-UGA which induced approximately a 2-fold increase in 3′UTR ribosome density for the cognate stop codon complimentary to the ACE-tRNA anticodon. Understanding the biological significance of 2-fold readthrough of protein stops will require further study, but this effect is substantially lower compared to the 100- to 1000-fold suppression of PTC for the same ACE-tRNA.
Multiple in-frame stop codons are frequently found at the end of genes^37-39 and may cause a minor difference in overall 3′UTR ribosome density for ACE-tRNA and G418 treatment. Ribosome occupancy was examined at each nucleotide in the 3′UTR within a 60 nt region downstream of the stop codons. […] Reads were normalized per total million-mapped reads, compared against control cells, and reported as a log 2-fold change as in panel A. More than 5,200 transcripts were mapped to at least 1 footprint in the region of interest. […] Taken together, the ribosome profiling data argue that efficiency of native stop codon suppression by ACE-tRNAs is generally low, and markedly less than the level of PTC suppression.
Ribosome Footprint Profiling Library preparation. HEK293 cells transiently transfected with ACE-tRNAs and control plasmid (puc57GG) were grown in standard grown media in the absence of Pen-Strep for 48 h. Libraries were prepared as described^55, with a few modifications. Briefly, cells were rapidly cooled by addition of ice-cold PBS, lysed in lysis buffer (20 mM Tris-HCl/pH7.4, 150 mM NaCl, 5 mM MgCl2, 1 mM DTT, 1% (v/v) Triton X-100, and 25 U ml^−1 Turbo DNase I) for 10 min on ice, and triturated with ten times through a 26-G needle. After clearance by centrifugation at 16,000 g for 10 min at 4° C., the lysates were digested with 100 U RNase I (Ambion, USA) per A260 lysate at room temperature for 45 min with gentle agitation prior to adding 200 U RiboLock RNase Inhibitor (Thermo Scientific). Ribosome protected mRNA fragments were then isolated by loading lysates onto a 1M sucrose cushion prepared in modified polysome buffer (20 mM Tris-HCl/pH7.4, 150 mM NaCl, 8.5 mM MgCl2, 0.5 mM DTT, 20 U ml^−1 RiboLock RNase Inhibitor) and centrifugated at 70,000 rpm at 4° C. for 2 h using a Beckmen TLA-110 rotor. Ribosome pellets containing mRNA footprints were extracted using TRIzol and separated on a denaturing 12% polyacrylamide gel containing 8M urea. RNA fragments with sizes ranging from 26 to 34 nt were manually excised from the gel stained with SYBR Gold (Invitrogen) and isolated to generate the ribosome-protected fragment library. Contaminating rRNA fragments depleted using a Ribo-Zero kit (Illumina). 3′ Oligonucleotide adaptor ligation, reverse transcription, circularization, and secondary rRNA depletion using biotinylated rRNA depletion oligos (Table 9) were performed as described^55. Libraries were barcoded using indexing primers for each sample during PCR amplification. […]

[2] = system: NLuc-UAA PTC; assay: NanoLuc nonsense reporter screen (all-in-one HTC plasmid), TAA/UAA PTC, HEK293 cells; assay type: cell-based, human; settings: Table 3, Gln TAA
Description: In order to enable the identification of the nucleotide composition and functional ability to suppress nonsense codons by new types of tRNA, an All-In-One Plasmid With A One Pot Cloning Reaction was invented for High Throughput Cloning FIG. 11. This approach enables the facile investigation of ACE-tRNA activity via luciferase activity in a standard 96 well format. Briefly, synthetic nucleotide sequences encoding for tRNA are ligated into the NanoLuc Reporter plasmid, with an example of the TGA nonsense reporter plasmid variant shown in FIG. 11. […] and TAG (amber) stop codon rescue vectors have been successfully designed and implemented in FIGS. 16-19. The benefits are the approach is that DNA oligos encoding for tRNA libraries can be ligated in the NanoLuc reporter plasmid with the presence of the restriction enzyme and ligase with the reaction pushed to nearly 100% incorporation of tRNA insert (FIG. 11)-thus the ‘one-pot’ designation. The reaction is transformed into E. coli, with the resultant cDNA purified by standard methods. Another benefit of the invented method is that the tRNA and reporter gen are within the single expression cassette, therefore lowering biological variability and improving data quality obtaining in resulting screens of tRNA suppression activity. The purified cDNA plasmids are then screened in high-throughput 96 well format for their ability to repair nonsense codons by inferred luciferase activity. The approach is suitable for the high-throughput screening of hundreds to thousands of tRNA for novel therapeutic activity.
The rationale of this study is rooted in the observation that there are multiple tRNA genes with unique sequences (isodecoders) for a given cognate amino acid (isoacceptors), leading to >400 tRNAs annotated in the human genome (http:lowelab.ucsc.edu/GtRNAdb/)^28, 29. First, tRNA genes were examined to identify individual ACE-tRNAs that retain suppression efficacy of PTCs in mammalian cells. In order to maximize sequence coverage, an all-in-one cDNA plasmid was generated that supports both high-throughput cloning (HTC) of ACE-tRNAs and quantitative measurement of PTC suppression using luminescence following delivery to mammalian cells, FIG. 21B. ACE-tRNA sequences were cloned as DNA oligos into the HTC plasmid using Golden Gate cloning^30 paired with ccdB negative selection^31. This strategy produced ˜100% cloning efficiency. ACE-tRNA suppression efficiency was read out from a split NanoLuc luciferase (NLuc) NanoBiT platform whereby the PTC of interest (UGA, UAA, or UAG) was introduced in-frame at the junction between the large bit and small bit domains, FIG. 21B^32, using a 96-well format and normalized to background obtained in NLuc-PTC expressing cells. Twenty-one glycine ACE-tRNAs were first evaluated for suppression of the UGA PTC, FIG. 22, top left, column 1 (violet). […] Given the high sequence conservation among the Gly-tRNAs screened for anti-codon tolerance (FIG. 27), it would be difficult to predict de novo which tRNA would be most amenable to anticodon-editing.
The parent plasmid used was pcDNA3.1(+). The cDNA encoding pNLuc was Gibson Assembled (New England Biolabs, USA) into restriction sites HindIII and XhoI. A glycine (codon gga), tryptophan ([…]), amber (tag), opal (tga) and ochre (taa), were added to amino acid position 160 during cDNA per. The pcDNA3.1(+) polyA sequence was replaced for one with no BbsI restriction sites using per based Gibson Assembly. The high throughput ACE-tRNA Golden Gate cloning site was generated by first inserting the 5′ leader sequence of the human tRNA^Tyr gene (bold) with a T7 promoter sequence upstream (italics)
tRNA gene sequences were obtained from the tRNA database tRNAscan-SE (http://gtrnadb.ucsc.edu/index.html; PMID: 26673694). […]

**Q.** For `CN[C@@H]1[C@@H](O)[C@@H](O[C@@H]2[C@@H](O)[C@H](O[C@H]3O[C@H]([C@@H](C)O)[C@@H](O)[C@H](O)[C@H]3N)[C@@H](N)C[C@H]2N)OC[C@]1(C)O` [G418, reference compound], which “ribosome occupancy at each nucleotide in the 3′UTR downstream of stop codons” value ([1]; HEK293, log 2-fold change versus control) is on record?
**A.** no observable change of ribosome occupancy

**Q.** And the “change of 3′UTR ribosome density versus control” value ([1]; HEK293, G418 150 μM, 48 hours, cognate stop codon group)?
**A.** no observable effect

B1: GlnTAAchr1.trna17: ACE-tRNA Gln, TAA suppressor, SEQ ID NO: 26 (nucleic acid)
chain: CGTCGGTTCCATGGTGTAATGGTGAGCACTCTGGACTTTAAATCCAGCGATCCGAGTTCGAGTCTCGGTGGAACCT
modifications: expressed or natural sequence
**Q.** With B1 as the molecule, how does the Ranking [2] read?
**A.** #3

B2: GlnTAAchr6.trna175: ACE-tRNA Gln, TAA suppressor, SEQ ID NO: 25 (nucleic acid)
chain: B1 chain with T7C, T8C, G24T, G60A, G62A, A72G
modifications: expressed or natural sequence
**Q.** For B2, which Ranking [2] is on record?
**A.** #2

B3: GlnTAAchr17.trna14: ACE-tRNA Gln, TAA suppressor, SEQ ID NO: 28 (nucleic acid)
chain: B1 chain with T8C, G24T, G60A, G62A, A72G
modifications: expressed or natural sequence
**Q.** Which Ranking [2] does the source give for B3 here?
**A.** #5

B4: GlnTAAchr6.trna1: ACE-tRNA Gln, TAA suppressor, SEQ ID NO: 27 (nucleic acid)
chain: B1 chain with G24T, G60A, G62A
modifications: expressed or natural sequence
**Q.** Which Ranking [2] does the source give for B4 here?
**A.** #4

B5: GlnTAAchr6.trna63: ACE-tRNA Gln, TAA suppressor, SEQ ID NO: 29 (nucleic acid)
chain: B1 chain with T8C, G24T, G49A, G62A, A72G
modifications: expressed or natural sequence
**Q.** B5 was tested. Which Ranking [2] did it give?
**A.** #5.2

B6: GlnTAAchr1.trna101: ACE-tRNA Gln, TAA suppressor, SEQ ID NO: 24 (nucleic acid)
chain: B1 chain with G24A
modifications: expressed or natural sequence
**Q.** B6 was tested. Which Ranking [2] did it give?
**A.** #1
